These results are taken from US20210380703A1 (RIGEL PHARMACEUTICALS, published 2021).

For one experiment, the target named is T1, Human ACVR2A (human, UniProt P27037 20-135, limits assumed).
T1 construct: also called activin receptor, type II A
Briefly: ELISA. In short, it runs like this:
(§1)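 Monoclonal antibodies were first applied to human or mouse ACVR2A, alongside biotinylated goat anti-human kappa light chain (positive control) and human Fc (negative control); binding was then determined by ELISA.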

A further experiment deals with Mouse ACVR2A (mouse, UniProt P27038 20-135, limits assumed). Briefly: ELISA. Put shortly: as §1
Mouse ACVR2A, sequence (P27038 20-135 limits assumed): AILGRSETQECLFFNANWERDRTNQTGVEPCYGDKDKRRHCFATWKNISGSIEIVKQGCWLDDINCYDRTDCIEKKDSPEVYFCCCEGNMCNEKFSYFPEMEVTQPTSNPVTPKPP
On the technique in general: In an ELISA, binding on a coated surface is turned into a signal by an enzyme label.

The target of the next experiment is T2, Goat anti-Human Kappa.
T2 construct: Positive control; also called biotinylated goat anti-human kappa light chain
Briefly: ELISA; positive control. Put shortly: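 ELISA measured binding of ACVR2A-specific monoclonal antibodies to human and mouse ACVR2A. Biotinylated goat anti-human kappa light chain served as positive control and human Fc as negative control.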
Further: test concentration or dose not given here.

T1 sequence (P27037 20-135 limits assumed): as the sequence (P27038 20-135 limits assumed) above, with R20K, I73V counted along it

B1: 369_H02 (antibody, V domains shown)
VH: EVQLLESGGGLVQPGGSLRLSCAASGFTFDDYSMNWVRQAPGKGLEWVSNINYNGGYKSYADSVKGRFTISRDNSKNTLYLQMNSLRAEDTAVYYCARGATWHDTHLDYWGQGTLVTVSS
VL: DIQMTQSPSSLSASVGDRVTITCRASQSIISYLNWYQQKPGKAPKLLIYAATSRASGVPSRFSGSGSGTDFTLTISSLQPEDFATYYCQQSYDSPLTFGGGTKVEIK
notes: VH/VL only
Consider B1, for which the optical density with Human ACVR2A is 3.09 OD; in the experiment with Mouse ACVR2A, 3.29 OD; with Goat anti-Human Kappa, 3.57 OD.

B2: 370_F01 (antibody, V domains shown)
VH: EVQLLESGGGLVQPGGSLRLSCAASGFTFSSYGMNWVRQAPGKGLEWVSNINYNGGYTSYADSVKGRFTISRDNSKNTLYLQMNSLRAEDTAVYYCARGATWHDTHLDYWGQGTLVTVSS
VL: DIQMTQSPSSLSASVGDRVTITCRASQSIVSYLNWYQQKPGKAPKLLIYAATSRASGVPSRFSGSGSGTDFTLTISSLQPEDFATYYCQQSYDSPLTFGGGTKVEIK
notes: VH/VL only
For the molecule B2, the figures for the optical density in the experiment with Human ACVR2A, with Mouse ACVR2A and with Goat anti-Human Kappa were 3 OD, 3.14 OD and 3.67 OD, respectively.

B3: 370_C07 (antibody, V domains shown)
VH: EVQLLESGGGLVQPGGSLRLSCAASGFTFSSYSMNWVRQAPGKGLEWVANINYNGGYKSYADSVKGRFTISRDNSKNTLYLQMNSLRAEDTAVYYCARGATWHDTHLDYWGQGTLVTVSS
VL: DIQMTQSPSSLSASVGDRVTITCRASQSILSYLNWYQQKPGKAPKLLIYAATSRHSGVPSRFSGSGSGTDFTLTISSLQPEDFATYYCQQSYESPLTFGGGTKVEIK
notes: VH/VL only
B3: the optical density in the experiment with Human ACVR2A was 3.35 OD; with Mouse ACVR2A it was 3.37 OD; in the experiment with Goat anti-Human Kappa, 3.3 OD.

B4: 370_H06 (antibody, V domains shown)
VH: EVQLLESGGGLVQPGGSLRLSCAASGFTFDDYSMNWVRQAPGKGLEWVANINYNGGYTGYADSVKGRFTISRDNSKNTLYLQMNSLRAEDTAVYYCARGATWHDTHLDYWGQGTLVTVSS
VL: DIQMTQSPSSLSASVGDRVTITCRASQSILTYLNWYQQKPGKAPKLLIYAATSRASGVPSRFSGSGSGTDFTLTISSLQPEDFATYYCQQSYETPLTFGGGTKVEIK
notes: VH/VL only
For the molecule B4, the optical density was 3.22 OD with Human ACVR2A, 3.39 OD with Mouse ACVR2A and 3.51 OD with Goat anti-Human Kappa.

B5: 370_E05 (antibody, V domains shown)
VH: EVQLLESGGGLVQPGGSLRLSCAASGFTFSSYGMNWVRQAPGKGLEWVSNINYNGGYKGYADSVKGRFTISRDNSKNTLYLQMNSLRAEDTAVYYCARGATWHDTHLDYWGQGTLVTVSS
VL: DIQMTQSPSSLSASVGDRVTITCRASQSISTYLNWYQQKPGKAPKLVIYAVTSRASGVPSRFSGSGSGTDFTLTISSLQPEDFATYYCQQSYNSPLTFGGGTKVEIK
notes: VH/VL only
In the case of B5, the optical density is 2.58 OD with Human ACVR2A, 2.77 OD in the experiment with Mouse ACVR2A and 3.52 OD with Goat anti-Human Kappa.

B6: 370_B08 (antibody, V domains shown)
VH: EVQLLESGGGLVQPGGSLRLSCAASGFTFSDYSMNWVRQAPGKGLEWVANINYNGGYTGYADSVKGRFTISRDNSKNTLYLQMNSLRAEDTAVYYCARGATWHDTHLDYWGQGTLVTVSS
VL: DIQMTQSPSSLSASVGDRVTITCRASQSILSYLNWYQQKPGKAPKLLIYAASSLQSGVPSRFSGSGSGTDFTLTISSLQPEDFATYYCQQSYDSPLTFGGGTKVEIK
notes: VH/VL only
For B6, the optical density with Human ACVR2A was determined as 3.13 OD; with Mouse ACVR2A it was 3.25 OD; in the experiment with Goat anti-Human Kappa, 3.35 OD.

B7: 370_F02 (antibody, V domains shown)
VH: EVQLLESGGGLVQPGGSLRLSCAASGFTFDSYGMNWVRQAPGKGLEWVANINYNGGYTGYADSVKGRFTISRDNSKNTLYLQMNSLRAEDTAVYYCARGATWHDTHLDYWGQGTLVTVSS
VL: DIQMTQSPSSLSASVGDRVTITCRASQSILSYLNWYQQKPGKAPKLLIYAVTSRHSGVPSRFSGSGSGTDFTLTISSLQPEDFATYYCQQSYDSPLTFGGGTKVEIK
notes: VH/VL only
Turning to B7, the optical density was 2.68 OD with Human ACVR2A, 2.89 OD with Mouse ACVR2A and 3.63 OD with Goat anti-Human Kappa.

B8: 370_C06 (antibody, V domains shown)
VH: EVQLLESGGGLVQPGGSLRLSCAASGFTFSSYSMNWVRQAPGKGLEWVANINYNGGYKSYADSVKGRFTISRDNSKNTLYLQMNSLRAEDTAVYYCARGATWHDTHLDYWGQGTLVTVSS
VL: DIQMTQSPSSLSASVGDRVTITCRASQSILTYVNWYQQKPGKAPKLLIYAASSLQSGVPSRFSGSGSGTDFTLTISSLQPEDFATYYCQQSYSTPLTFGGGTKVEIK
notes: VH/VL only
On to B8, for which the optical density in the experiment with Human ACVR2A came out at 3.14 OD; with Mouse ACVR2A it was 3.41 OD; with Goat anti-Human Kappa, 3.55 OD.

B9: 370_C10 (antibody, V domains shown)
VH: EVQLLESGGGLVQPGGSLRLSCAASGFTFDSYSMNWVRQAPGKGLEWVSNINYNSGYKGYADSVKGRFTISRDNSKNTLYLQMNSLRAEDTAVYYCARGATWHDTHLDYWGQGTLVTVSS
VL: DIQMTQSPSSLSASVGDRVTITCRASQSIVSYVNWYQQKPGKAPKLLIYATTSRASGVPSRFSGSGSGTDFTLTISSLQPEDFATYYCQQSYSSPLTFGGGTKVEIK
notes: VH/VL only
Turning to B9, the optical density with Human ACVR2A was determined as 1.3 OD; in the experiment with Mouse ACVR2A, 1.38 OD; with Goat anti-Human Kappa, 3.35 OD.

B10: 370_E04 (antibody, V domains shown)
VH: EVQLLESGGGLVQPGGSLRLSCAASGFTFSSYSMNWVRQAPGKGLEWVANINYNGGYKGYADSVKGRFTISRDNSKNTLYLQMNSLRAEDTAVYYCARGATWHDTHLDYWGQGTLVTVSS
VL: DIQMTQSPSSLSASVGDRVTITCRASQSILTYLNWYQQKPGKAPKLLIYAVTSLHSGVPSRFSGSGSGTDFTLTISSLQPEDFATYYCQQSYETPLTFGGGTKVEIK
notes: VH/VL only
In the case of B10, the optical density is 2.57 OD in the experiment with Human ACVR2A, 2.72 OD in the experiment with Mouse ACVR2A and 3.4 OD with Goat anti-Human Kappa.

B11: 369_H08 (antibody, V domains shown)
VH: EVQLLESGGGLVQPGGSLRLSCAASGFTFSSYSMNWVRQAPGKGLEWVAGINYNSGYKSYADSVKGRFTISRDNSKNTLYLQMNSLRAEDTAVYYCARGATWHDTHLDYWGQGTLVTVSS
VL: DIQMTQSPSSLSASVGDRVTITCRASQSILSYVNWYQQKPGKAPKLVIYAATSLASGVPSRFSGSGSGTDFTLTISSLQPEDFATYYCQQSYESPLTFGGGTKVEIK
notes: VH/VL only
As for B11, the optical density with Human ACVR2A amounted to 3.16 OD; in the experiment with Mouse ACVR2A, 3.23 OD; in the experiment with Goat anti-Human Kappa, 3.56 OD.

B12: 370_F12 (antibody, V domains shown)
VH: EVQLLESGGGLVQPGGSLRLSCAASGFTFSDYSMNWVRQAPGKGLEWVANINYNGGYTGYADSVKGRFTISRDNSKNTLYLQMNSLRAEDTAVYYCARGATWHDTHLDYWGQGTLVTVSS
VL: DIQMTQSPSSLSASVGDRVTITCRASQSILSYLNWYQQKPGKAPKLLIYAASSLQSGVPSRFSGSGSGTDFTLTISSLQPEDFATYYCQQSYDSPLTFGGGTKVEIK
notes: VH/VL only
With B12, the optical density with Human ACVR2A worked out at 3.55 OD; with Mouse ACVR2A, 3.57 OD; in the experiment with Goat anti-Human Kappa, 3.64 OD.

B13: 370_D03 (antibody, V domains shown)
VH: EVQLLESGGGLVQPGGSLRLSCAASGFTFSSYSMNWVRQAPGKGLEWVASINYNGGYTSYADSVKGRFTISRDNSKNTLYLQMNSLRAEDTAVYYCARGATWHDTHLDYWGQGTLVTVSS
VL: DIQMTQSPSSLSASVGDRVTITCRASQSIITYLNWYQQKPGKAPKLLIYAATSRASGVPSRFSGSGSGTDFTLTISSLQPEDFATYYCQQSYDLPLTFGGGTKVEIK
notes: VH/VL only
For B13, the optical density with Human ACVR2A is 3.13 OD; with Mouse ACVR2A, 3.25 OD; with Goat anti-Human Kappa it was 3.58 OD.

B14: 370_D09 (antibody, V domains shown)
VH: EVQLLESGGGLVQPGGSLRLSCAASGFTFSDYSMNWVRQAPGKGLEWVSGINYNSGYTSYADSVKGRFTISRDNSKNTLYLQMNSLRAEDTAVYYCARGATWHDTHLDYWGQGTLVTVSS
VL: DIQMTQSPSSLSASVGDRVTITCRASQSIVTYLNWYQQKPGKAPKLVIYAATSRASGVPSRFSGSGSGTDFTLTISSLQPEDFATYYCQQSYDTPLTFGGGTKVEIK
notes: VH/VL only
On to B14, for which the optical density amounted to 2.92 OD with Human ACVR2A, 2.53 OD with Mouse ACVR2A and 3.48 OD with Goat anti-Human Kappa.

B15: 370_H04 (antibody, V domains shown)
VH: EVQLLESGGGLVQPGGSLRLSCAASGFTFSSYSMNWVRQAPGKGLEWVSNINYNGGYTGYADSVKGRFTISRDNSKNTLYLQMNSLRAEDTAVYYCARGATWHDTHLDYWGQGTLVTVSS
VL: DIQMTQSPSSLSASVGDRVTITCRASQSILSYVNWYQQKPGKAPKLLIYAATSRASGVPSRFSGSGSGTDFTLTISSLQPEDFATYYCQQSYDLPLTFGGGTKVEIK
notes: VH/VL only
Take B15: the optical density with Human ACVR2A was 3.48 OD; in the experiment with Mouse ACVR2A it was 3.56 OD; with Goat anti-Human Kappa, 3.62 OD.

B16: 369_H12 (antibody, V domains shown)
VH: EVQLLESGGGLVQPGGSLRLSCAASGFTFSSYSMNWVRQAPGKGLEWVAGINYNGGYKSYADSVKGRFTISRDNSKNTLYLQMNSLRAEDTAVYYCARGATWHDTHLDYWGQGTLVTVSS
VL: DIQMTQSPSSLSASVGDRVTITCRASQSIVTYVNWYQQKPGKAPKLVIYAATSRASGVPSRFSGSGSGTDFTLTISSLQPEDFATYYCQQSYDSPLTFGGGTKVEIK
notes: VH/VL only
With B16, the optical density with Human ACVR2A was 3.46 OD; with Mouse ACVR2A, 3.42 OD; with Goat anti-Human Kappa, 3.65 OD.

B17: 370_G08 (antibody, V domains shown)
VH: EVQLLESGGGLVQPGGSLRLSCAASGFTFSDYSMNWVRQAPGKGLEWVAGINYNGGYTGYADSVKGRFTISRDNSKNTLYLQMNSLRAEDTAVYYCARGATWHDTHLDYWGQGTLVTVSS
VL: DIQMTQSPSSLSASVGDRVTITCRASQSILTYLNWYQQKPGKAPKLVIYAATSRASGVPSRFSGSGSGTDFTLTISSLQPEDFATYYCQQSYESPLTFGGGTKVEIK
notes: VH/VL only
In the case of B17, the optical density with Human ACVR2A is 3.21 OD; with Mouse ACVR2A it was 3.33 OD; with Goat anti-Human Kappa, 3.56 OD.
